Experimental data taken from article PMC10720262 (Cell Reports, 2023).
Where a chain is given by its changes, count along the chain named.

B1: CL-440324 (antibody, V domains shown)
VH: QVQLVESGGGVVQPGRSLRLSCAASGFTFRNHGLHWVRQAPGKGLEWVAIIWFDGSNKFYADSVKGRFTISRDNSKNTLYLQMNSLRAEDTAIYYCARVSSHDNGDYGDFDYWGQGTLVTVSS
VL: DIQMTQSPSTLSASVGDRVTITCRASQNISNWLAWYQQKPGKAPKLLIYKASSLESGVPSRFSGSGSGTEFTLTISGLQPDDFATYYCQQYKTYWTFGQGTQVEIK
B2: CL-444588 (antibody, V domains shown)
VH: QVQLVESGGGVVQPGRSLRLSCAASGFTFSGYGMHWVRQTPGKGLGWVALIWYDGSNKFYADSVRGRFTISRDNSKNTLYLQMNSLRAEDTAIYYCARSYPSGSRGDKYGMDVWGQGTTVTVSL
VL: B1 VL with N28S, N31T, Y36F, S63T, G77S, K92N, T93S, Q102K
B3: CL-447563 (antibody, V domains shown)
VH: QVQLVASGGGVVQPGRSLRLSCAASGFTFSNYGMHWVRQAPGKGLEWVAIIWYDGSKKYYSDSVKGRFTISRDNSKNTLYLQMNSLRAEDTAVYYCARAYGSGSYSDDYYGMDVWGQGTTVTVSS
VL: B1 VL with N28S, N31T, S53N, G77S, K92Y, T93S, Q102K
B4: CL-440422 (antibody, V domains shown)
VH: QVQLVESGGGVVQPGRSLRLSCAASGFTFSNFGMHWVRQTPDRGLEWVAIIWFDGSNTFYTDSVKGRFTISRDNYMNTLYLQMNSLRAEDTAVYYCARSFYSDSAGSLFDYWGQGTLVTVSS
VL: B1 VL with S30N, L33V, S53D, S56T, Y86F, Q89L, Y91N, K92N, T93H, Q102K
B5: CL-444424 (antibody, V domains shown)
VH: QVQLVESGGGVVQPGRSLRLSCTASGFTFSNYGMHWIRQAPGKGLEWVAIIWFDGSSQYYADSVKGRFTISRDNSKNTLYLQMNSLRAEDTAVYYCVRALYDSGSLFDFWGLGTLVTVSS
VL: B1 VL with N31S, W32L, S65N, I75V, G77S, Y87S, Q89L, K92N, T93N, Q102K
B6: CL-444882 (antibody, V domains shown)
VH: QVHLVESGGGVVQPGRSLRLSCATSGFSFSSYGMHWVRQAPGKGLEWVAIIWYDGSNKFYADSVKGRFTISRDNSENTLYLQMNSLRAEDTAVYYCAKVGLSYSGRTGAFDIWGQGTMVTVSS
VL: B1 VL with N28S, N31I, S52A, F62I, G77S, K92N, T93S, Q102K
B7: CL-444653 (antibody, V domains shown)
VH: QVQLVESGGGVVQPGRSLRLSCTASGFTFSTYGMHWVRQAPGKGLEWVAIIWYDGGNKFYADSVKGRFTISRDNSKDTLYLQMNSLRAEDTAVYYCAKAWYKVDDKYSMDVWGQGTTVTVSS
VL: B1 VL with N28S, N31S, K92I, T93N, Q102K
B8: CL-445827 (antibody, V domains shown)
VH: QVQLVASGGGVVQPGRSLRLSCVASGFTFSFFGMHWVRQTPGRGLEWVAIIWYDGGHKFYADSVKGRFTISRDNSKDTLYLQMNSLRAEDTAVYYCARAEDNMARGNIDYSKYGMDVWGQGTTVTVSS
VL: B1 VL with A13V, V15I, N28S, N31T, S53N, E70D, K92F, T93S, Q102K
B9: CL-447609 (antibody, V domains shown)
VH: QVQLVESGGGVVQPGRSLRLSCAASGFTFNNYGMHWVRQAPGKGLDWVAIIWFDGSNKYYADSVKGRFTISRDNSKNTLYLQMNSLRAEDTAVYYCARVGDHSKYRNRGDAFDIWGQGTMVTVSS
VL: B1 VL with N28S, N31S, G77S, F83S, Y87F, K92D, T93S, Q102K
B10: CL-444691 (antibody, V domains shown)
VH: QVQLVESGGGVVQPGRSLRLSCAASGFTFSNYGMHWVRQAPGKGLEWVAVIWYDGSNKFYADSVKGRFTISRDNSKNTLYLQMNSLRAEDTAVYYCARDGGYNKNSGSYGWFDPWGQGTLVTVSS
VL: B1 VL with N28S, I29V, N31T, G77S, K92N, T93S, W95F, Q102R, V103L
B11: CL-444469 (antibody, V domains shown)
VH: QVQLVESGGGVVQPGRSLRVSCEVSGLTFSNYGMHWVRQAPGKRLEWVAIIWYDGSNKYYADSVKGRFTISRDNSKNTLYLQMNSLRAEDTAVYYCARSYGSGSRGDYYGMDVWGQGTTVTVSS
VL: B1 VL with N28S, N31S, Y36F, G77S, K92Y, T93S, Q102K
B12: CL-441734 (antibody, V domains shown)
VH: QVQLVESGGGVVQPGRSLRLSCAASGFTFSSHGMHWVRQAPVKGLEWVAVIWYDGSNKYYADSVKGRFTISRDNSKNTLYLQMNSLRAEDTAVYYCARVEYSRSSGDYYYYGLDVWGQGTTVTVSS
VL: EIVMTQSPATLSVSPGERATLSCRASQSVSSNLAWYQQKPGQAPRLLIYGASTRATGIPARFSGSGSGTEFTLTISSLQSEDFAVYYCQQYDNWWTFGQGTKVEIK
B13: CL-441816 (antibody, V domains shown)
VH: QEQLVESGGGVVQPGRSLRLSCATSGFTFSTYGLHWVRQSPGKGLEWVTVIWYDGSNKFYADSVKGRFTISRDNSKNTLYLQMNSLRAEDTAVYYCARALYSSRWYGAFDIWGQGTMVTVSS
VL: QSVLTQPPSVSGAPGQRVTISCTGSSSNIGAGYDVHWYQLLPGTAPKLLIYGNSNRPSGVPDRFSGSKSGTSASLAITGLQAEDEADYYCQSYIRSLSGSVFGGGTKLTVL
B14: CL-447703 (antibody, V domains shown)
VH: QVQLVESGGGVVQPGRSLRLSCEASGFTFSDHGMHWVRQGPGKGLEWVSIIWYDGSNKYYADSVKGRFTISRDNSKNTLYLEMNRLRAEDTALYYCARVWNHDDYKYSMDVWGQGTTVTVSS
VL: not shown
B15: CL-447737 (antibody, V domains shown)
VH: QVQLVESGGGVVQPGRSLRLSCAASGFTFSSYGMHWVRQAPGKGLEWVAIIWFDGSNIFYEDSVKGRFTISRDNSKNTLYLQMNSLRAEDTAVYYCAKVWNYDSDYYSMDVWGQGTTVTVSS
VL: not shown
B16: CL-444387 (antibody, V domains shown)
VH: B6 VH with A23V, T24A, N57Y, K58T, F59Y, E76K, A88V, S104N
VL: not shown
B17: CL-444739 (antibody, V domains shown)
VH: B6 VH with A23V, T24A, K58R, F59Y, K65Q, E76K, S104N, I112V
VL: not shown
B18: CL-445901 (antibody, V domains shown)
VH: QVQLVESGGGVVQPGRSLRLSCAASGFTFSNYGIHWVRQAPGKGLEWVALIWFNGNNKFYADSVEGRFTVSRDNSKNTLYLQLNSLRAEDTAVYYCARAYYFASGNYMDYWGQGTLVTVSS
VL: DIQMTQSPSSVSASMGDRVTITCRASQDISSSLAWYQQKPGKAPILLISFASSLHSGVPSRFSGSGSGTDFTLTISSLQPEDFATYSCQQANSFPWTFGQGTRVEVK
B19: CL-447376 (antibody, V domains shown)
VH: QVQLVESGGGVVQPGRSLRLSCAASGFNFNNYGMHWVRQAPVMGLEWVAIIWYDGSNKFYADSVKGRFTISRDNSQNTLFLQMNSLRAEDTGIYYCARSGGEMGNFDYWGQGTLVTVSS
VL: DIVMTQSPLSLPVTLGQPASISCRSSQSLVYSNGDTYLDWFQLRPGQSPRRLIYKVSHRDSGVPDRFSGSGSGTEFTLRISRVEAEDVGIYYCMQGTHYWTFGQGTEVEIK
B20: CL-444639 (antibody, V domains shown)
VH: QVQLVESGGGVVQPARSLRLSCAASGFTFSSYGMHWVRQAPGKGLEWVAVIWYDGSNKYYADSVKGRFTISRDNSKNTLYLQMNSLRAEDTAVYYCAKVGDFYGSGSYPHYYGMDVWGQGTTVTVSS
VL: not shown
B21: CL-445457 (antibody, V domains shown)
VH: QVQLVESGGAVVQPGTSLRLSCAASGFTFSNYGIHWVRQAPGKGLQWVALIWYNGNNKFYADSVQGRFTISRDNSKNILYLQINSLSAEDTAVYYCARAFYSDSGNYMDYWGQGALVTVSS
VL: DIQMTQSPSSVSASVGDRVTITCRARQDISSRLAWYQQKPGKAPKILIYGASSLQSGVPSRFSASGSGTDFTLTISSLQPEDVASYFCQQANSFPWTFGQGTKVEIK
B22: CL-445635 (antibody, V domains shown)
VH: B21 VH with I34M, D62E, Q65E, T69I, Y80F, I83M, S102Y, M108L, Q113P, A115S
VL: B21 VL with V83F, S85T, F87Y
B23: CL-444906 (antibody, V domains shown)
VH: B7 VH with G56S, V93I, K98R, Y101D, S108G
VL: not shown
B24: CL-444592 (antibody, V domains shown)
VH: QVQLVESGGGVVQPGRSLRLSCAASGFTFSSYGMHWVRQAPGKGLEWVAVIWYDGSNKYYADSVKGRFTISRDNSKNTLYLQMNSLRAEDTAVYYCARDGNWNYNYYYGMDVWGQGTTVTVSS
VL: DIQLTQSPSFLSASVGDRVTITCWASQGISSYLAWYQQKPGKAPKLLIYAASTLQSGVPSRFSGSGSGTEFTLTISSLQPEDFATYYCQQLNSYPPTFGQGTRLEIK
B25: CL-440582 (antibody, V domains shown)
VH: QVQLVESGGGVVQPGRSLRLSCAASGFTLNNYGIHWVRQAPGKGLEWLSLIWYDGSNKFYADSVKGRFTVSRDNSQNTVSLHMSSLSVDDTAVYYCARPGIGVPGDKYTMDVWGQGTTVTVSS
VL: DIQMTQSPSTLSASVGDRVTITCRASQTISAWLAWYQQKLGKAPKILIYKASILESGVPSRFSGSGSGTEFTLTINSLQPDDFATYYCQQYNYDWTFGQGTKVEIN
B26: CL-442127 (antibody, V domains shown)
VH: QAQLVESGGGVVQPGKSLRLSCAASRFTFRNYGMHWVRQGPVKGLEWVALIWHDGSNKFYSDSVRDRFTISRDNSKNKLFLQMNSLTADDTALYYCVRSNYDGSGTYGWFGPWGQGTLVTVSS
VL: EIVLTQSPGTLSLSPGERATLSCRASQSVISNYLAWYQQKPGQAPRLLIYGASTRDIGIPDRFSGSGSGTDFTLTISRLEPEDFAVYFCHQYGSSFTFGPGTKVDFK

target: recombinant full-length PfCSP (Plasmodium falciparum circumsporozoite protein, strain NF54) (Plasmodium falciparum NF54, UniProt P19597)
Sequence (P19597 20-375): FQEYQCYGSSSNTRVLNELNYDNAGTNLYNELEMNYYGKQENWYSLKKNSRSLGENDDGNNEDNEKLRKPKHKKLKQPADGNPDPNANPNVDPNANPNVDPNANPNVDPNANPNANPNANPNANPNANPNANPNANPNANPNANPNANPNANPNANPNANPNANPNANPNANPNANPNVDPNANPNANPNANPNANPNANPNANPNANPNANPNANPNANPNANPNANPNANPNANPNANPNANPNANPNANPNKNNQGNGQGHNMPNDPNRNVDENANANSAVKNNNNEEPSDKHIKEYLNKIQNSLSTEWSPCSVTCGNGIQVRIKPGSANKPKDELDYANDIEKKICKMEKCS

Binding result, binds:
B1
B2
B3
B4
B5
B6
B7
B8
B9
B10
B11
B12
B13
B14
B15
B16
B17
B18
B19
B20
B21
B22
B23
B24
B25
B26
